Assay results published in patent US20050124794A1, “Cell surface tropomyosin as a target of angiogenesis inhibition” (priority 2002, published 2005).
Several values for one entry are separate records, joined by “and”; a condition that tells them apart may be missing. Equal entries are not always repeated. Entries after “also recorded” stand apart in the source; their conditions may differ.

Assays:
[1] = system: bFGF-induced angiogenesis in the chick chorioallantoic membrane; experiment: Chick chorioallantoic membrane (CAM) assay; assay type: in vivo
Description: This assay is performed essentially as described by Nguyen et al (Microvascular Res. 47:31-40 (1994)). A mesh containing either angiogenic factors (bFGF) or tumor cells plus inhibitors is placed onto the CAM of an 8-day old chick embryo and the CAM observed for 3-9 days after implantation of the sample. Angiogenesis is quantitated by determining the percentage of squares in the mesh which contain blood vessels.
Chick chorioallantoic membrane assay. […] Three day-old fertilized White Leghorn chicken eggs were cracked in sterile Petri dishes. Embryos were cultured at 37° C., under 4% CO2, until day 7, at which time a 3.0 mm filter disc containing either 30 ng bFGF (positive control), 30 ng bFGF and 10 μg HKa or 30 ng bFGF, 10 μg HKa and 20 μg of mAb TM-311 was placed on the CAM. Each experimental condition was tested in at least 6 eggs. On day 10, embryos were photographed using a SPOT digital camera Angiogenesis was quantitated by counting the number of neovessels in direct contact with the filter disc.

proliferating ECs [2] = experiment: Assessment of EC apoptosis (DAPI, TUNEL, DNA cleavage); assay type: cell-based, human
Description: Assessment of EC apoptosis. The effect of TM-311 on HKa- or HKa D5-induced EC apoptosis was determined using several methods. First, staining of control or HKa exposed ECs using 4′, 6′-diamidino-2-phenylindole dihydrochloride (DAPI) (Molecular Probes, Eugene Oreg.) was employed to highlight apoptosis-associated changes in nuclear morphology. Second, apoptosis was assessed by TUNEL staining, using the Apo-Direct kit (Pharmingen, San Diego, Calif.). Cells were counterstained with propidium iodide to define all nuclei, and the percentage of apoptotic CUNEL positive) nuclei determined by manual counting. Finally, to assess endothelial apoptosis by endonucleolytic cleavage of DNA, EC DNA was isolated and separated using 0.8% agarose gel electrophoresis. Gels were stained with ethidium bromide, and DNA visualized using UV light.

chicken gizzard Tpm [3] = target: T1, chicken gizzard Tpm (Gallus gallus, UniProt P19352); experiment: Binding of HKa to purified Tpm immobilized in 96 well microplates; settings: biotin-HKa, Zn2+-dependent (10 μM Zn2+), nonlinear regression; read-out: Kd of binding of HKa to purified Tpm
T1 construct: purchased Sigma; host or cells: chicken gizzard (tissue-derived, as the name says)
Description: To measure the binding of HKa to purified Tpm, 96 well microplates were coated with 20 μg/ml of chicken gizzard Tpm (Sigma), or bovine serum albumin (BSA), as a control. Wells were then blocked by incubation with phosphate buffered saline containing 5% nonfat milk, and incubated with increasing concentrations of HKa (0.01-20 nM) for 2 hours. Specifically-bound HKa was quantitated as described for cell binding assays (van Iwaarden et al., supra, and by assessing the ability of a 100-fold molar excess of unlabeled HKa to compete with biotin-HKa for binding.
In selected experiments, the ability of mAb TM-311 and recombinant HKa D5 to inhibit the binding of biotin-HKa to Tpm was assessed. These studies allowed determination of the Kd for binding of HKa D5 to Tpm using the equation: Kd (D5)=IC50/(1+[HKa]/Kd (HKa)) where IC50 is the concentration of HKa D5 that inhibited HKa binding by 50%, and Kd(HKa) is the Kd for binding of HKa to Tpm.

proliferating ECs [4] = experiment: Binding of biotin-HKa to ECs; set-up: species or system human; settings: Zn2+-dependent (10 μM Zn2+), nonlinear regression, read-out: Kd of specific binding of HKa to proliferating ECs
Description: Binding of HKa to ECs and purified Tpm. Binding of HKa to ECs was measured as described by Hasan, A A et al. (1995) J. Biol. Chem. 270:19256-19261. Briefly, 3×10^4 HLVEC/ml were cultured in 96-well microplates, then washed and incubated with increasing concentrations of biotin-HKa for two hours, at 4° C. After brief washing, cells were incubated sequentially with a 1:750 dilution of streptavidin peroxidase and the peroxidase substrate, turbo-TMB (Pierce), prior to measurement of A490. Absolute amounts of bound HKa were determined by comparison of A490 values with a standard curve prepared using known amounts of biotin-HKa Binding was measured in the presence (to determine total binding) and absence (to determine non-specific binding) of 10 μM Zn^2+, and specific binding defined as the difference between total and non-specific binding (van Iwaarden, F et al. (1988) J. Biol. Chem. 263:4698-4703). The dissociation constant (Kd) was determined by fitting the saturation isotherm by nonlinear regression using the Prism software program (GraphPad, San Diego, Calif.).
In selected experiments, the ability of mAb TM-311 to inhibit the binding of HKa to cells was assessed by incubating biotin-HKa with ECs in the presence of increasing concentrations of antibody. […]

HUVEC = experiment: EC proliferation assay (growth factor-induced); assay type: cell-based, human; settings: bFGF 10 ng/ml; 20 nM HKa, 60 nM HKa domain 5
Description: EC proliferation assays. The effect of HKa on ECs in the absence or presence of mAb TM-311 was initially assessed using a proliferation assay, as described in Zhang et al., supra. Relative numbers of cells remaining in each well of a 96 well microplate after incubation for 48 hours in the absence or presence of HKa were determined using the Aqueous® cell proliferation assay (Promega, Madison, Wis.). Results are presented as the percent inhibition of bFGF-induced EC proliferation, which essentially reflects the extent of HKa-induced EC apoptosis. Though bFGF was used as the EC mitogen in most studies of the studies described herein, identical results were obtained using VEGF.

chicken gizzard Tpm [5] = target: T1, chicken gizzard Tpm; experiment: Binding to immobilized Tpm in a 96 well plate (biotin-HKa competition or direct binding); settings: plate coated with 200 ng chicken gizzard Tpm, 10 μM ZnCl2
Description: Plates are coated at room temperature with chicken gizzard Tpm (Sigma) in Tris buffer-saline (TBS) (200 ng/well). After incubation for 2 hours, wells are washed with TBS, then 1% BSA/TBS/Tween-20 is added to each well and incubate at 37° C. for two hours. HKa (Enzyme Laboratories) that had been previously biotinylated with EZ-Link (Pierce) according to the manufacturers instructions, is added to the plate at a concentration of 10 nM together with ZnCl2 (10 μM) and the appropriate concentration of the protein, domain or peptide competitor. The plates are incubated at room temperature and then washed with TBS/Tween-20. Avidin-HRP is added, incubated for 20 minutes at room temperature, washed with TBS/Tween-20 and the chromogenic substrate is added. The reaction is stopped with sulfuric acid and the plate read at 490 nm.
The IC50 for the displacement of biotinylated-HKa for the peptides shown in Table 5 was determined as follows: 10 nM biotin-HKa is added to a 96 well plate previously coated with 200 ng of chicken gizzard Tpm in the presence of 10 μM ZnCl2. Increasing amounts of the peptides are added to the wells. The remaining biotin-HKa bound to Tpm was detected using avidin-HRP and a chromogenic substrate. A Kd was determined by non-linear regression analysis of the empirical data. The effect on the Matrigel Plug assay was determined as follows: Matrigel (0.5 mL) containing 400 ng/ml of bFGF, 50 μg/ml heparin with or without the peptide (300 μM) or saline buffer are injected in the flanks of a mouse. After five days, the plugs are removed and the plugs scanned.
The N-terminus of the pentapeptide HHPHG has been derivatized (capped) in an attempt to increase the pentapeptides' affinity to Tpm by increasing productive molecular contacts (or interactions). […] The IC50 for the displacement of biotinylated-HKa for the capped peptides shown in the table was determined as follows: 10 nM biotin-HKa was added to a 96 well plate previously coated with 200 ng of chicken gizzard Tpm in the presence of 10 μM ZnCl2. Increasing amounts of the peptides were added to the wells. The remaining biotin-HKa bound to Tpm was detected using avidin-HRP and a chromogenic substrate. A Kd was determined by non-linear regression analysis of the empirical data

T1 sequence (P19352 1-284 isoform P19352-2): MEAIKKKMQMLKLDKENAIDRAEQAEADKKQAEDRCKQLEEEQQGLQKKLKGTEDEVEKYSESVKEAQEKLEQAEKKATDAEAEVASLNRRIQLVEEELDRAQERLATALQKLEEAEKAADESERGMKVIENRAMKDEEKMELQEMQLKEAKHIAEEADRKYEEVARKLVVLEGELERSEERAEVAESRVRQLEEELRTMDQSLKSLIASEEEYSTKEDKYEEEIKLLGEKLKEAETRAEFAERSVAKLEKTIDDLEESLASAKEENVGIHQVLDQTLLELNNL
T1 sequence (P04268 1-284 isoform P04268-2 F73S/I172L/T199L/N203E/L204A partner): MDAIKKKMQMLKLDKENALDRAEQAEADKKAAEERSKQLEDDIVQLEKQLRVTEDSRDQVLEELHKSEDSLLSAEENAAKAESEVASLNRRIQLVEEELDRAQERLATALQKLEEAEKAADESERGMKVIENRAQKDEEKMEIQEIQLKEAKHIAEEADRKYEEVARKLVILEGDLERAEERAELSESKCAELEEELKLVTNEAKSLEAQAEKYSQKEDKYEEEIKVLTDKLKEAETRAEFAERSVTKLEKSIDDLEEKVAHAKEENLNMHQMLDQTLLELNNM

B1: HKa: Two-chain high molecular weight kininogen, purchased from Enzyme Research Laboratories (protein)
chain 1: QESQSEEIDCNDKDLFKAVDAALKKYNSQNQSNNQFVLYRITEATKTVGSDTFYSFKYEIKEGDCPVQSGKTWQDCEYKDAAKAATGECTATVGKRSSTKFSVATQTCQITPAEGPVVTAQYDCLGCVHPISTQSPDLEPILRHGIQYFNNNTQHSSLFMLNEVKRAQRQVVAGLNFRITYSIVQTNCSKENFLFLTPDCKSLWNGDTGECTDNAYIDIQLRIASFSQNCDIYPGKDFVQPPTKICVGCPRDIPTNSPELEETLTHTITKLNAENNATFYFKIDNVKKARVQVVAGKKYFIDFVARETTCSKESNEELTESCETKKLGQSLDCNAEVYVVPWEKKIYPTVNCQPLGMISLMK
chain 2: SSRIGEIKEETTVSPPHTSMAPAQDEERDSGKEQGHTRRHDWGHEKQRKHNLGHGHKHERDQGHGHQRGHGLGHGHEQQHGLGHGHKFKLDDDLEHQGGHVLDHGHKHKHGHGHGKHKNKGKKNGKHNGWKTEHLASSSEDSTTPSAQTQEKTEGPTPIPSLAKPGVTVTFSDFQDSDLIATMMPPISPAPIQSDDDWIPDIQTDPNGLSFNPISDFPDTTSPKCPGRPWKSVSEINPTTQMKESYYFDLTDGLS
For B1, which “inhibition of angiogenesis induced by bFGF-containing filter discs, vessel counts” value ([1]; 30 ng bFGF, 10 μg HKa) is on record?
The value was “about 85%”.

What about the “inhibition of bFGF-induced angiogenesis in the CAM (in words)” value ([1]; in vivo) of the same molecule?
Its value is “inhibited basic FGF-induced angiogenesis; also recorded: antiangiogenic activity”.

And the “induction of EC apoptosis (in words)” value (proliferating ECs [2])?
The value was “induction of EC apoptosis”.

What about the Kd (chicken gizzard Tpm [3]) of the same molecule?
The Kd was ~2.6 nM and ~2.5 nM.

What about the Kd (proliferating ECs [4]) of the same molecule?
The Kd was ~2.5 nM and ~2.6 nM.

And the “inhibition of bFGF-induced EC proliferation (in words)” value (HUVEC)?
The value was “inhibition”.

And the Kd (chicken gizzard Tpm [5])?
The Kd was ~1 nM.
